Molecular target: human AXL (full length) (human) (UniProt P30530)
Test: flow cytometry; A431 cells pre-incubated with 10 µg/mL Gas6

UniProt P30530, sequence (P30530 26-894 limits assumed): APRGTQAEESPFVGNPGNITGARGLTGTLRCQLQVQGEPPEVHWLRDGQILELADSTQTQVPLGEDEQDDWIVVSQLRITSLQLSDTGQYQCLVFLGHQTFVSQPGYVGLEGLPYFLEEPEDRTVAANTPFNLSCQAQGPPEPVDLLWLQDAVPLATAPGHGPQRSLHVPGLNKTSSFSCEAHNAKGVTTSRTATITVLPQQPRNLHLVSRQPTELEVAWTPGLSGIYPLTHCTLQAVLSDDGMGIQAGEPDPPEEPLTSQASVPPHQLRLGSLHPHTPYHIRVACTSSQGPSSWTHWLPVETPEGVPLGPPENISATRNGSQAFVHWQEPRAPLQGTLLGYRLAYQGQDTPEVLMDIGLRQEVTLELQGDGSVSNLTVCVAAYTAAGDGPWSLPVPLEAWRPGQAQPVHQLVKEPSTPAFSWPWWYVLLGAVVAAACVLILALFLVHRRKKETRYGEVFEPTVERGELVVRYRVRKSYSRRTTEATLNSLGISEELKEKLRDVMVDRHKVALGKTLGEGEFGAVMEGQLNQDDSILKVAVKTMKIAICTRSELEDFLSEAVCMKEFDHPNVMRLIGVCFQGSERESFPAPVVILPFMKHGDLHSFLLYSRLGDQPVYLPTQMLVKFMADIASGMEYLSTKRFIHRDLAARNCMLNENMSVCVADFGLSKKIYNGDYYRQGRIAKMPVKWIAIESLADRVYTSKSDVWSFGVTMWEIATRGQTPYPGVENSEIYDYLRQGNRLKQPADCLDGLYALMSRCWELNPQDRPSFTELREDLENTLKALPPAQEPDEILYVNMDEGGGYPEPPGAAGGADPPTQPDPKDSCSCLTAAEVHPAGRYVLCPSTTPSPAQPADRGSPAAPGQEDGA

- fold change of EC50 with Gas6 pre-incubation against without Gas6: 21 fold
- maximal binding in presence of Gas6 (% of binding in absence of Gas6): 19%
B1: IgG1-YW327.6S2 (antibody, from another filing, V domains shown)
VH: EVQLVESGGGLVQPGGSLRLSCAASGFSLSGSWIHWVRQAPGKGLEWVGWINPYRGYAYYADSVKGRFTISADTSKNTAYLQMNSLRAEDTAVYYCAREYSGWGGSSVGYAMDYWGQGTLVTVSS
VL: DIQMTQSPSSLSASVGDRVTITCRASQDVSTAVAWYQQKPGKAPKLLIYSASFLYSGVPSRFSGSGSGTDFTLTISSLQPEDFATYYCQQSYTTPPTFGQGTKVEIK
